The assay concerns the target T1, anti-CD19/CD20 CAR having the amino acid sequence of SEQ ID NO: 2 (construct CC314).
T1 construct: Chimeric antigen receptor on the surface of transduced T cells: Leu16 scFv (VL-VH), (G4S)4, FMC63 scFv (VH-VL), IgG4 spacer, CD28 TM, 4-1BB, CD3 zeta; also called CD19/20 CAR; CD 19/20 CAR
In words: flow cytometry staining of T cells (donor 1917) transduced with CD19/20 CAR lentiviral vector. (In general: A flow cytometer gives signals particle by particle.)

T1 sequence (chain, as listed by the source): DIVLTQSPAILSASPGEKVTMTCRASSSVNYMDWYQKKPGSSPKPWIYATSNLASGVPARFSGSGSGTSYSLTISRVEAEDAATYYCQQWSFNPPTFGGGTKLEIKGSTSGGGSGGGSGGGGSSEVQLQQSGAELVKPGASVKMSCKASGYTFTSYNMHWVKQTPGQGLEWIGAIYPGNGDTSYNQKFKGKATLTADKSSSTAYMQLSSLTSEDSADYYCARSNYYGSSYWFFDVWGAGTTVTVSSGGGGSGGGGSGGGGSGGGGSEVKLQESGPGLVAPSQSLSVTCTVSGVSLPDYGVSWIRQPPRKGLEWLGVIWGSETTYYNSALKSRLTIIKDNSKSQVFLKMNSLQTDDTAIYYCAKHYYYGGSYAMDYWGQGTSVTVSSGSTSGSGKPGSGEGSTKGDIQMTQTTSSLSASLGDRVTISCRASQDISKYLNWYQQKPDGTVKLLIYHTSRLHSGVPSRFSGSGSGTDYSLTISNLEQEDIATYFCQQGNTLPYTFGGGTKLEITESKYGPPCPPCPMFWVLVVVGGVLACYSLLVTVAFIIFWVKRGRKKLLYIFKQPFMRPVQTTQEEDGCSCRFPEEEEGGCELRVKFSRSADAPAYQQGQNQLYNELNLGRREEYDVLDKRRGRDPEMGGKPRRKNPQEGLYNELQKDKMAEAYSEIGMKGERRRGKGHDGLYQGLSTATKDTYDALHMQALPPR

B1: CD20 Protein-Biotin (Acros) (other, UniProt P11836 1-297, looked up)
chain: MTTPRNSVNGTFPAEPMKGPIAMQSGPKPLFRRMSSLVGPTQSFFMRESKTLGAVQIMNGLFHIALGGLLMIPAGIYAPICVTVWYPLWGGIMYIISGSLLAATEKNSRKCLVKGKMIMNSLSLFAAISGMILSIMDILNIKISHFLKMESLNFIRAHTPYINIYNCEPANPSEKNSPSTQYCYSIQSLFLGILSVMLIFAFFQELVIAGIVENEWKRTCSRPKSNIVLLSAEEKKEQTIEIKEEVVGLTETSSQPKNEEDIEIIPIQEEEEEETETNFPEPPQDQESSPIENDSSP
modifications: biotin (site not stated)
notes: Bought detection reagent
For the molecule B1, the “% Positive Cells” value is 68.1%.
